Results on 4 molecules are retold here after PMC11145185, “Inhibition of mRNA nuclear export promotes SARS-CoV-2 pathogenesis” (Proceedings of the National Academy of Sciences of the …, 2024).

Residue numbers refer to the chain shown, from its start. In names and notes the source's numbering stands.

First the molecules themselves.
B1: GST-tagged SARS-CoV-2 Nsp1 E55A/E57A/K58E (natural protein)
chain: MESLVPGFNEKTHVQLSLPVLQVRDVLVRGFGDSVEEVLSEARQHLKDGTCGLVAVAEGVLPQLEQPYVFIKRSDARTAPHGHVMVELVAELEGIQYGRSGETLGVLVPHVGEIPVAYRKVLLRKNGNKGAGGHSYGADLKSFDLGDELGTDPYEDFQENWNTKHSSGVTRELMRELNGG
B2: GST-tagged SARS-CoV-2 Nsp1 N-terminal domain (residues 1 to 129) (domain or fragment)
chain: MESLVPGFNEKTHVQLSLPVLQVRDVLVRGFGDSVEEVLSEARQHLKDGTCGLVEVEKGVLPQLEQPYVFIKRSDARTAPHGHVMVELVAELEGIQYGRSGETLGVLVPHVGEIPVAYRKVLLRKNGNK
B3: GST-tagged SARS-CoV-2 Nsp1 E91K/L92A/E93K/I95A (natural protein)
chain: B1 chain with A55E, A57E, E58K, E91K, L92A, E93K, I95A
B4: GST-tagged SARS-CoV-2 Nsp1 L27D/V28D (natural protein)
chain: B1 chain with L27D, V28D, A55E, A57E, E58K
notes: also called hydrophobic patch mutant

This assay concerns the target T1, human NXF1(117-619)-NXT1 heterodimer, wild type (human, UniProt Q9UBU9 117-619; Q9UKK6 1-140).
T1 construct: human NXF1 (mRNA export receptor), residues 117-619; human NXT1, coexpressed with NXF1; also called NXF1-NXT1; mRNA export receptor; source: E. coli Rosetta, coexpressed, purified (details in SI Appendix)
T1 sequence (looked up) 1: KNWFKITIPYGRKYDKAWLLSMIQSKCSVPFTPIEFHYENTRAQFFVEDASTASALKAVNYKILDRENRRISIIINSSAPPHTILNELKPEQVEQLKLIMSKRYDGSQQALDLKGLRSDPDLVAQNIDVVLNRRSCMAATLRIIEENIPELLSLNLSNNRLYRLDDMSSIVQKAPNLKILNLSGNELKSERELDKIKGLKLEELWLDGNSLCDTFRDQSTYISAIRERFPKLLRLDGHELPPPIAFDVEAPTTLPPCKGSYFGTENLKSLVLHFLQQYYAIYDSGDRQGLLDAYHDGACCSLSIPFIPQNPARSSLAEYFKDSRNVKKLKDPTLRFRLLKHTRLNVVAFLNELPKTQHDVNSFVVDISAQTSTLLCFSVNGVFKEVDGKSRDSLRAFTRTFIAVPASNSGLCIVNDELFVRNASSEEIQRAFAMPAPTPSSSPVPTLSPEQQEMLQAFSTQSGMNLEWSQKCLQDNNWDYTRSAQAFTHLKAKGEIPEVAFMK
T1 sequence (looked up) 2: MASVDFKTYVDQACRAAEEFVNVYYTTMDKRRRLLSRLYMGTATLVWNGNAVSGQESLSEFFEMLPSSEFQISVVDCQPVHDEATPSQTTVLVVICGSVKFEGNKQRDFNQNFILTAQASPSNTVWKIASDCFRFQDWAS
Particulars: both partners purified.
Consider B1, for which the binding result is reported as “binds”.

Turning to B2, the binding result was “binds”.

Turning to B3, the binding result is given as “binds”.

For the molecule B4, the binding result is given as “binds”.
